Earlier results in patent US5747454A, “Chromogranin peptides” (Albert Einstein College of Medicine of Yeshiva University, priority 1995, dated 1998).

Tested on: primary cultures of parathyroid cells

B1: Chromogranin A: large, acidic protein found in the secretory granules of endocrine and neuroendocrine tissues including the parathyroid (protein, UniProt P10645 19-457, looked up)
Chromogranin-A: LPVNSPMNKGDTEVMKCIVEVISDTLSKPSPMPVSQECFETLRGDERILSILRHQNLLKELQDLALQGAKERAHQQKKHSGFEDELSEVLENQSSQAELKEAVEEPSSKDVMEKREDSKEAEKSGEATDGARPQALPEPMQESKAEGNNQAPGEEEEEEEEATNTHPPASLPSQKYPGPQAEGDSEGLSQGLVDREKGLSAEPGWQAKREEEEEEEEEAEAGEEAVPEEEGPTVVLNPHPSLGYKEIRKGESRSEALAVDGAGKPGAEEAQDPEGKGEQEHSQQKEEEEEMAVVPQGLFRGGKSGELEQEEERLSKEWEDSKRWSKMDQLAKELTAEKRLEGQEEEEDNRDSSMKLSFRARAYGFRGPGPQLRRGWRPSSREDSLEAGLPLQVRGYPEEKKEEEGSANRRPEDQELESLSAIEAELEKVAHQLQALRRG
Q: For B1, which “inhibition of parathyroid hormone secretion” value is on record?
A: Its value is “inhibit parathyroid hormone secretion”.
